Measured values: the domain aggregation screens of Martell et al. (2025)

Assay: soluble fraction after stress (log2 fold change); higher = more stays soluble; pooled small domains, quantitative proteomics
Settings: stress: pH 4
Procedure, shortened: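 Pooled custom libraries of small protein domains were stressed at pH 4 and then measured by high-throughput quantitative proteomics. The fold change in the amount of each domain that stays soluble after the acid stress serves as a measure of aggregation propensity. Fold changes are given on a log2 scale, and higher values mean more of the domain stayed soluble.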

Row | Sequence | soluble fraction (log2)
1 | HMKNHIEERRKARGMTQQQLASELGVSRQTIISLENGKYNPSILLAHSIARLFGERIEDIFILR | -0.354
2 | HMKNINTNIGKNLKRIRKLRGLTIDALATSSGVSKSMISEIERGIRNPSITIIWSLANALKTPLNYFLKE | ≥ 0.43
3 | HMKNKFYEEFSDYIFKHTGIHYAEANYYQLDARINKLMKFLETSDENDVLKAIQGGAVKDQRVHQMIVDLA | -1.27
4 | HMKNKRERLGIISEILRMQVIGSQEELLDILRAKGYDVTQATLSRDLKVLKVAKTPLSNGAYKYVLPPQ | ≥ 0.43
5 | HMKNLSQAEFMYLFKILAFGSTDPDNHPEMAATGMEIAKMLQGLLLSGNVLADILRKNQNVQFWL | -0.0785
6 | HMKNNITFSEFLHEVDNGRVIKVNIQGNNITGILADGKSFNTYTPNDPSLIEKLTSKGVSISATPI | 0.127
7 | HMKNNLKGSPIIIAGGYGVGSKENFNLLFDLAKVLNAEVGASRAAVDAGFVEHDRQIGQTGVTVRP | -0.0469
8 | HMKNNYQYIVDQIKQLILDGELIVGDRLPSERDLSEMYQVSRASVREALKALETIGLLESRHGGGNYIVNH | -0.68
9 | HMKNQIGFKIKNARRKASISQADLSAKLGISSSYLNLIESGKRNVNVDLLLKVSDVLNIELKDLSK | -0.437
10 | HMKNTYTVVSGDTLWGIASRKLGGGSNWTKIYDANAATIESVANRRRGGRGSDHGHWIYPGTVLTI | 0.216
11 | HMKNYYRILGLNIDAEYEEIKAAYRILAQRHHPDKGGAAAEFRLIQEAYDILSNPLTKRNYDADLLATLN | -1.08
12 | HMKPDMAVIVGSRTLTFATTTDRQILVLRTDGTMVNRLSMKAGETRTITLPAGVYIVNGKKIIV | 0.22
13 | HMKPFSLESYKAFVVKRLGLFPETSSAQMHDWLKEEYPDFPLITPRTVYNFVMKIRQDYGIAKV | -0.732
14 | HMKPFVVVPIDQVRVGMFIQLDLGWMQHPFPVGSFRVASEAQIDTLRSLDLESVRYLPAKSDPAFQQP | -0.986
15 | HMKPGNFILDLLRTYGQKGTSAQNLMSSSRMFNFSENLIRVTLSRLAARGLIENFERGHYRLAE | 0.0573
16 | HMKPGTIVTGVVVDIKSDVVVVNAGLKSEGIVPIEQFRNDRGELEVAIGDEVKVALDSLENGFGETVLSRE | -1.21
17 | HMKPQKRYLFEEVLTFLKHNSEKSFNYKQLGAAMEISNESDRFTLLETLEELKHQGFVVEKEIGKYQAKE | 0.37
18 | HMKPRVTVVTLGVDDLERAVRFYAEGLGFPTEGIVGREFEFGAVAFFDMQPGLRLALWPRRSLAHDSGLP | -0.328
19 | HMKPSISKIYALWGVLQRSGKIKSQDKAALDAFVRKYTGVDHVKWLDESQARKIIEILKQMIA | 0.104
20 | HMKPSKTDEAEYWLMERLEEGPQPAGDLIRIGEEFGYTPKILRDAGERFNMERYKDGLDHWMWKLPN | 0.349
21 | HMKPVTNHTVKFYVDDVLWKTVTVKHGGNVRLADLPMSDGKTFVGWSESVVNVTKDLTVFALFS | -0.478
22 | HMKPVYNKVEIPRGGEYALVLSDGTKVHLNSMSSLRFPVAFTTGKREVELQGEAYFEVSKTGQPFIVNV | 0.22
23 | HMKQGKGIIVVDGKLMPEDFNVATLSLDEVESITVLKGEKAVALYGEKAKEREVLLITTQKG | -0.316
24 | HMKQKAEVIFVSKTIMEALSKGVRLTPENLKSETELPIDDFYARLKELIDNGSVVESRENGESYLEAGN | -0.938
25 | HMKQLNKRQDDILSLAEKEGYVSVENLAKTFTVSQQTIRRDINYLSDHEFLVRTHGGAFYSSG | -0.288

Row | Sequence | soluble fraction (log2)
26 | HMKQNNYATKKELNFFVSRLISLLSYRDFFNPIEKKESMINNIEAIFTRSSLTSQELRTLHGIISNLVE | -1.27
27 | HMKQPNSYGSVHKLPGKRRKPWRVRKTSGWLLDEQSGTVKQQYITIGYYATKQEALIALADYNENP | -0.434
28 | HMKQQFTREQIIELMYKAYKKHKKKLNRVEIKKEKALPSYVTIGRYLNETSIKKIWEIVLSEKE | -0.388
29 | HMKQVEVESVIGKSEEAANSILTKAGLKVNIGYKEDSSKPTDTVLSQDPAPGEKVDEGTTVTIVVNNYKKP | -0.127
30 | HMKRANGTGSVFKLNGKRRNPWVARVTQGFDDKGRQKYVNLGYYKTKREAENELLSYNSNPYDAN | -0.0271
31 | HMKREWKDDDPTVPAGWKVAWTTTSDNRAKIAFMSPDKKIFHSRKSALQHMLAAGTYAQSDIEKMTKGL | 0.377
32 | HMKRFSPPSIEEVDSYIREKGYTVDAERFVNFYESKGWYVGKNKMKNWRAAVATWQKEDNKRN | -0.0455
33 | HMKRGDAYASEMIARLKEAHLIVMEGTLYPLLTRLKNDGLLSYRWEESTQGPPRKYYSITPVG | -0.081
34 | HMKRITGHLTEKNKKWYAVINLYDTDGKRKEKWQGLNLDANKGNKREAEHRLRQILDQYNTD | 0.125
35 | HMKRITKKQLSQQLEQFFSSQPGKKLTLKDIFRALHLDTHPLKMLAMDIMEEMAWDDFITKKGENAYQLNT | -0.725
36 | HMKRKAIDQSWQPDKEAIEILSKAGVNEEFIKEEIPEFILYWSEKGEESDTWNSKFIAQVRRQWAKTQH | 0.248
37 | HMKRQATLQIGSKRFGMDDLYFKFTVPFEDSEKLGTATIEAYNLSPATRNSIKKGMPIILNAGYEGDI | -0.103
38 | HMKRTMVEAAMVAKLFNLTVRRIQQLTQDGVLTTELVDKKRRYDLLLTVQKYIAYLQEKVAK | ≥ 0.43
39 | HMKRVVFFNGISWYHRTKELLDDMTTKYGKKGGFATPEEAEKSYWEYEERYKDRQRELQVAYLKN | -0.913
40 | HMKSDEGEIKKIVEEIISKNASVVEDYKKGKEVALQFLVGQGMKATKGSANPELLKKIILENI | -0.105
41 | HMKSDVVFDITDGTVKAMLKFNRSDVTILNNDGKNYYLFTANGEFTFKYQDGSGEYYEKTVYVDWLEDE | -1.56
42 | HMKSFIWKQYTVQITKKNVKNTNVRIKRDNPHVILMSIPYSATYKAGLLALETPHIRHWLDNYERKLKQ | 0.0309
43 | HMKSIEVPNLINMTLRKAKIELIDNEFNLDTVIYEYNPNIREGRVSLQIPESGTILKSGSNISIHISKGIP | -0.32
44 | HMKSIPKIKWNSTLENIKNFEYQDNFFESKEMYDLLVSFYKYGFVIIKNIPTNNNFIVKFANSIGS | 0.121
45 | HMKSISMANGNVQLRINGVLASSLEVAALSPEDIKRVEYHDNPGLRYGEGIDIVLDYITIKRT | -1.16
46 | HMKSISMSKLRHLLQLYVQGRSKKLISEQTGIARNTLKKYIKEFSEAGLSLEALLALSDKELEDLFVK | 0.282
47 | HMKSLPQKLLAYLESQGLTRDEAGEFVKQGLKITSNDVDQIQLLLANTEVIDIKLQEFIAQK | -0.549
48 | HMKSLVDLEISIVKKDMNYFVLPKINGEPLLMERISASEYKDFQLGKLSKEDIFQKHYPDYSEENIKNGRG | 0.19
49 | HMKSSISKNWNPSKDAIEILTRAGIDQEFLENLIPEFVIYWIERSDVLISYNSKFIEHARLKWAQHTAEIQ | -0.106
50 | HMKSTPMYATAIVNIRSKAGTDSEILGKLNPSEEISVISSENGWSKVSYNGKEAYISSNYLSNAKP | 0.22
